± gives the standard error. Fewer inactive variants are shown than the library holds.
B1: glmS ribozyme (parent)
chain: AUAAAAGCGCCAGAACUACAGAAAUGUAGUUGACGAGGAGGAGGUUUAUCGAAUUUUCGGCGGAUGCCUCCAAA

Variants of: B1
Assay: self-cleavage kobs at 2500 uM GlcN6P; higher = faster cleavage; RNA array
Settings: with glucosamine-6-phosphate
How it was run: (§1)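 Barcoded ribozyme variants were transcribed in situ on sequenced MiSeq chips by E. coli RNA polymerase. At 37 °C, a hybridised Cy3 probe tracked them while glucosamine-6-phosphate (40 μM to 10 mM) in HEPES/KCl/Mg(OAc)2 buffer flowed in and tiles were imaged over ~14 h. Per-tile medians of signals normalised to baseline and to non-cleaving reference variants were fit to one- or two-exponential decays, giving kobs. kcat and KM came from weighted Michaelis–Menten fits across concentrations.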

Variant	self-cleavage kobs at 2500 uM GlcN6P [s⁻¹]
A39G G40U A52G	6.69e-05 ± 2.4e-05
A12G U46G C71U	9.1e-05 ± 2.1e-05
C10A A53U G60U	8.13e-05 ± 1.6e-05
G7C C8G G40C	< 1e-05
A6G A12C C16U	0.000167 ± 3.6e-05
G35U C61U C70U	< 1e-05
G7C C11U U54A	< 1e-05
U46C G66A C70U	0.00157 ± 0.00039
A14C U46C C70U	0.000279 ± 5.2e-05
G26U A48G	7.11e-05 ± 1.8e-05
A6U G51C U55A G66A	< 1e-05
C50G C58A C68G	9.4e-05 ± 1.9e-05
C8U C10A A15C	< 1e-05
G29U A33G G40A	< 1e-05
G37A U56C	0.000299 ± 7.3e-05
A39U A64C C70G	< 1e-05
A14U G40C A64G	6.98e-05 ± 1.7e-05
A14C G35A A52G	< 1e-05
A15U G35C G38U U47G U69G	< 1e-05
C11U U30C A39G A42G	0.000103 ± 3.7e-05
A12C G38A U49C A53C	< 1e-05
C16U G32A G41A	0.000133 ± 2.7e-05
G9U A12C A33G A53U	< 1e-05

Variant	self-cleavage kobs at 2500 uM GlcN6P [s⁻¹]
G9U U55C U56G C67U	< 1e-05
C34G G35U G43U	< 1e-05
C8G U30C A36C U69C	< 1e-05
C16U U46G U47C C70U	0.00139 ± 0.00038
C16A G38A U55A	< 1e-05
A36G U65C C68G	< 1e-05
A33C A39G G40U U49A	< 1e-05
A12U A39U G63A	< 1e-05
G9U U45G G62C G66C	< 1e-05
U45G C50U U55A	< 1e-05
C16A G40U U57A C67U	< 1e-05
U46G A48G U57G G62U	< 1e-05
C16A G66A C71G	5.24e-05 ± 2.5e-05
A12U G32A G60A	< 1e-05
A6U U54G G66C C67U	< 1e-05
G7U G9A G29A A39G	< 1e-05
G32C A33C G63U G66A	< 1e-05
G29A U69C C70U	5.97e-05 ± 1.6e-05
A6C A33U A52G U57C C70U	< 1e-05
G7U A39G U56G C70A	< 1e-05
G13A G32C U54C	0.000273 ± 9.2e-05
G35U C50G G66A	7.38e-05 ± 3.6e-05
G32C G37C U55C U65G	< 1e-05

Variant	self-cleavage kobs at 2500 uM GlcN6P [s⁻¹]
A14C G43C G51A U56G	< 1e-05
A15U U55G G66U	7.43e-05 ± 1.6e-05
A12G G32U G40U	0.000317 ± 0.00011
C16G U65A C71U	0.000341 ± 8.1e-05
G37A U49C A53U	< 1e-05
G32U G41U G44A C70U	< 1e-05
U46A A52G G62U C70U	< 1e-05
A12G U56C C67U	< 1e-05
G41U U54A U55A U56A C67U	< 1e-05
G35C A36G G40U C70U	< 1e-05
A6U G43A G51C	< 1e-05
U69C C70U C71G	3.82e-05 ± 1.3e-05
G38C U49G U55A U65G	< 1e-05
A42U G59U C70G	< 1e-05
G13A U45G A64G	6.3e-05 ± 1.9e-05
A39U A48U C67G	0.00017 ± 6.1e-05
A39C U46A U47G A48C G63A	< 1e-05
G9U A36G U49A G62U C67U C70G	< 1e-05
G13C A14G C68U	8.88e-05 ± 2.7e-05
G51C G66C C71A	< 1e-05
U30C G35U G51A A53U U56C	< 1e-05
C8G G29U U31A	< 1e-05
A48C C67G	2.91e-05 ± 1e-05

Variant	self-cleavage kobs at 2500 uM GlcN6P [s⁻¹]
G35C G38C A48U	< 1e-05
A39G G40U U56A	0.000452 ± 0.00011
G29C U46G U55G	3.45e-05 ± 1.5e-05
A12G U55A U69G	0.000115 ± 3e-05
G41U A42C C61A	< 1e-05
A15C G35C U69C	< 1e-05
G7A G29C G38A G44C	< 1e-05
A36G U55A U65G	< 1e-05
A14G A36C U54C	< 1e-05
C8G A14G U55G C58U U65G	< 1e-05
C10G A12C G44A C68U	< 1e-05
U30C U31A A36G C50A U57G	< 1e-05
U30G U46C C50A A64C	< 1e-05
C10U G60C G63U	< 1e-05
C16U A42G U57C	0.000189 ± 6.6e-05
C10U G29U A33G A39C U55G C70G	< 1e-05
G7C A36G U55C	< 1e-05
A12C G66U C70A	0.000107 ± 2.6e-05
A33C C50G	0.000218 ± 9.9e-05
G13C C58G G59A	< 1e-05
G32U U55A C70U	0.000404 ± 8e-05
G35U U47A U55C	< 1e-05
A15C G41U U57C A64U	< 1e-05

Variant	self-cleavage kobs at 2500 uM GlcN6P [s⁻¹]
C10G G44U C50G	< 1e-05
G37C G62U C71G	< 1e-05
C16A G40U U54C C71U	8.78e-05 ± 1.5e-05
A12C A15C A48G	< 1e-05
G13C G29U C50A U56C G62C U69A	0.000141 ± 5.2e-05
G29C A36U A52G	< 1e-05
G7U G35U U45A A53C	< 1e-05
C10A G63A C71U	< 1e-05
A15C U45A A64G	0.00477 ± 0.002
A33C G35U A42G A48G	< 1e-05
G9U G29U A53G	< 1e-05
C34U U47C C61U	< 1e-05
A12U U54A C58U	4.04e-05 ± 1.6e-05
U31G G41U G62U G66U	< 1e-05
C34U G38U A42U G63U	< 1e-05
A6G A14C G38C	< 1e-05
A15G U45C U65G C67U	0.000125 ± 3.7e-05
G13C A15C G59A	< 1e-05
G35C A36U G41C G51U U65G	< 1e-05
A6U G38A C50G C67U	6.17e-05 ± 1.7e-05
C8U A33C C58G	< 1e-05
G38C C58G G60U	< 1e-05
U30A G38U G40C	< 1e-05

Variant	self-cleavage kobs at 2500 uM GlcN6P [s⁻¹]
A12G G29C G37A U46A	< 1e-05
A6G G29A C50G	0.000103 ± 3.9e-05
G59C C61U C67A	4.78e-05 ± 1.7e-05
G35C C68U C71A	< 1e-05
G37U A39U G43U C67G	< 1e-05
A6G G9C G63C A64U	< 1e-05
A33G U69G	5.67e-05 ± 1.7e-05
G40U U46G A48C	< 1e-05
C8U C16U G60A C67A	< 1e-05
G40A A53G C58A	0.000125 ± 3.1e-05
A12G C16G G44U	< 1e-05
G7C G40U C50G G66C	< 1e-05
A6G C16U C58U U65G	< 1e-05
G37C G44C C67U	< 1e-05
G29C A48U G60C	< 1e-05
A6U A15U G51C	< 1e-05
C34A G44C G59U G63A	< 1e-05
U30A U31A U57A C71U	0.000133 ± 3.1e-05
A39G G44A	0.00105 ± 0.00035
A6G A39G U54G	0.000164 ± 4.9e-05
C10A G41A G43C	< 1e-05
C8G C10A G44U	< 1e-05
A15G U30C G51U U65C	< 1e-05

Variant	self-cleavage kobs at 2500 uM GlcN6P [s⁻¹]
U46A U56A C67G	0.000143 ± 6.8e-05
C10U A12U G63C C70A C71A	5.29e-05 ± 1.7e-05
G29C G40U U46C C67A	< 1e-05
A33G A53C U65A C67U	< 1e-05
G13C G62C A64C	< 1e-05
C11U U31C G32A A64U	< 1e-05
C16U C34A A36C C58A	< 1e-05
U46G G59U G60U	< 1e-05
C8U A15U G44C	< 1e-05
G9U A36U C50G U54G U57A C67U	0.000182 ± 3.6e-05
G41U U45C U56G	7.1e-05 ± 3.2e-05
C8G G63U U65C	< 1e-05
C10G G37A U56G G62U	< 1e-05
A12C A42U C67U	7.04e-05 ± 1.6e-05
A12U A33U U49A C68A	< 1e-05
U30G A42G G66U C71A	4.6e-05 ± 2.2e-05
G38A C58U C71U	< 1e-05
U30G U55C U65A C71U	8.23e-05 ± 1.7e-05

Variants of: B1
Assay: self-cleavage kobs at 10000 uM GlcN6P; higher = faster cleavage; RNA array
Settings: with glucosamine-6-phosphate
How it was run: as §1

Variant	self-cleavage kobs at 10000 uM GlcN6P [s⁻¹]
A14C U46C C70U	0.000482 ± 9.4e-05
G37A U56C	0.000401 ± 5.4e-05
A15U G35C G38U U47G U69G	0.000954 ± 0.0003
C16U G32A G41A	0.00033 ± 9.1e-05
G9U U55C U56G C67U	< 1e-05
C8G U30C A36C U69C	< 1e-05
C16A G40U U57A C67U	< 1e-05
G29A U69C C70U	7.72e-05 ± 1.5e-05
A14C G43C G51A U56G	< 1e-05
C16G U65A C71U	0.000346 ± 8.7e-05
A39U A48U C67G	0.000104 ± 1.6e-05
U30C G35U G51A A53U U56C	< 1e-05
A48C C67G	2e-05 ± 7.5e-06
A39G G40U U56A	0.00056 ± 0.00013
G7A G29C G38A G44C	< 1e-05
C16U A42G U57C	0.00018 ± 4.1e-05
A12U U54A C58U	6.78e-05 ± 1.3e-05
G35C A36U G41C G51U U65G	< 1e-05
A39G G44A	0.000926 ± 0.00033
U46A U56A C67G	0.000316 ± 7.6e-05
C8G G63U U65C	< 1e-05
A12U A33U U49A C68A	< 1e-05

— the supplement of paper PMC7125110
